Measurements: patent publication US20250346679A1 (INVOX PHARMA, published 2025)

B1: FS22-053-008-AA/E12v2 (bispecific antibody, human IgG1, kappa, L234A L235A)
heavy: EVQLVQSGAEVKRPGASVKVSCKASGYPFTSYGISWVRQAPGQGLEWMGWISAYSGGTNYAQKLQGRVTMTTDTSTSTAYMELRSLRSDDTAVYYCARDLFPTIFGVSYYYYWGQGTLVTVSSASTKGPSVFPLAPSSKSTSGGTAALGCLVKDYFPEPVTVSWNSGALTSGVHTFPAVLQSSGLYSLSSVVTVPSSSLGTQTYICNVNHKPSNTKVDKKVEPKSCDKTHTCPPCPAPEAAGGPSVFLFPPKPKDTLMISRTPEVTCVVVDVSHEDPEVKFNWYVDGVEVHNAKTKPREEQYNSTYRVVSVLTVLHQDWLNGKEYKCKVSNKALPAPIEKTISKAKGQPREPQVYTLPPSRDELNPPYLFSNQVSLTCLVKGFYPSDIAVEWESNGQPENNYKTTPPVLDSDGSFFLYSKLTVDYWRWLEGNVFSCSVMHEALHNHYTQKSLSLSPG
light: DIQMTQSPSTLSASVRDRVIITCRASQSIGNRLAWYQHKPGKAPKLLIYEASTSETGVPSRFSGSGSGTDFTLTISSLQPEDFATYYCQQSYSTPYTFGQGTKLEIKRTVAAPSVFIFPPSDEQLKSGTASVVCLLNNFYPREAKVQWKVDNALQSGNSQESVTEQDSKDSTYSLSSTLTLSKADYEKHKVYACEVTHQGLSSPVTKSFNRGEC
B2: FS22-172-003-AA/lam-G02v3 (bispecific antibody, human IgG1, L234A L235A)
heavy: EVQLVQSGAEVKRPGASVKVSCKASGYTFTSYGISWVRQAPGQGLEWMGWISAYSGGTNYAQKLQGRVTMTTDTSTSTAYMELRSLRSDDTAVYYCARDLFPTIFGVSYYYYWGQGTLVTVSSASTKGPSVFPLAPSSKSTSGGTAALGCLVKDYFPEPVTVSWNSGALTSGVHTFPAVLQSSGLYSLSSVVTVPSSSLGTQTYICNVNHKPSNTKVDKKVEPKSCDKTHTCPPCPAPEAAGGPSVFLFPPKPKDTLMISRTPEVTCVVVDVSHEDPEVKFNWYVDGVEVHNAKTKPREEQYNSTYRVVSVLTVLHQDWLNGKEYKCKVSNKALPAPIEKTISKAKGQPREPQVYTLPPSRDELPYIIPPYNQVSLTCLVKGFYPSDIAVEWESNGQPENNYKTTPPVLDSDGSFFLYSKLTVGADRWLEGNVFSCSVMHEALHNHYTQKSLSLSPG
light: QSALTQPASVSGSPGQSITISCTGTSSDVGGYNYVSWYQQFPGKAPKLMIFEVTNRPSGVSDRFSGSKSDNTASLTISGLQAEDEAEYYCSSFKRGSTLVVFGGGTKLTVLGQPAAAPSVTLFPPSSEELQANKATLVCLISDFYPGAVTVAWKADSSPVKAGVETTTPSKQSNNKYAASSYLSLTPEQWKSHRSYSCQVTHEGSTVEKTVAPTECS
notes: see recheck
B3: G1-AA/20H4.9 (antibody, V domains shown)
VH: QVQLQQWGAGLLKPSETLSLTCAVYGGSFSGYYWSWIRQSPEKGLEWIGEINHGGYVTYNPSLESRVTISVDTSKNQFSLKLSSVTAADTAVYYCARDYGPGNYDWYFDLWGRGTLVTVSS
VL: EIVLTQSPATLSLSPGERATLSCRASQSVSSYLAWYQQKPGQAPRLLIYDASNRATGIPARFSGSGSGTDFTLTISSLEPEDFAVYYCQQRSNWPPALTFGGGTKVEIKR
B4: G1-AA/G12v2 (antibody, human IgG1, kappa, L234A L235A, V domains shown)
VH: EVQLVQSGAEVKRPGASVKVSCKASGYTFTSYGISWVRQAPGQGLEWMGWISAYSGGTNYAQKLQGRVTMTTDTSTSTAYMELRSLRSDDTAVYYCARDLFPTIFGVSYYYYWGQGTLVTVSS
VL: DIQMTQSPSTLSASVGDRVTITCRASQSISGRLAWYQQKPGKAPNLLIYEASNLESGVPSRFSGSGSGTEFTLTISSLQPEDFATYYCQQSYSWPRTFGQGTKVEIKR
notes: anti-PD-L1 IgG1 with LALA

What was measured:
[1] = biological target: T1, human CD137, cell-surface (human, UniProt Q07011 24-255); test: cell-based or functional assay
[2] = biological target: human PD-L1, cell-surface (human, UniProt Q9NZQ7 19-290); test: cell-based or functional assay
[3] = biological target: T2, cynomolgus CD137, cell-surface (cynomolgus, UniProt Q07011 24-255 (human entry)); test: cell-based or functional assay
T2 chain: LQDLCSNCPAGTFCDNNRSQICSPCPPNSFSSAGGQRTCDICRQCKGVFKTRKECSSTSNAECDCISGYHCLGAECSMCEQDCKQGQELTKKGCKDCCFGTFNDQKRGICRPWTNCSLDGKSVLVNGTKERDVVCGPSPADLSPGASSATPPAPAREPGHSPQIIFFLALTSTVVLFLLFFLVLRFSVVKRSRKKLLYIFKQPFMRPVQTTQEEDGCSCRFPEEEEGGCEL

[4] = biological target: T3, biotinylated hPD-L1-Avi-His (Acro Biosystems, PD1-H82E5) (human, UniProt Q9NZQ7 19-238, biotinylated); test: SPR, mAb^2 captured on Protein A chip, antigen in flow
T3 construct: bought; also called Human PD-L1-His; not shown: Avi and His tags of the bought product
Description: (§1) Briefly, the anti-human CD137/PD-L1 mAb², diluted in HBS-EP buffer (GE Healthcare, BR100188) at 2 μg/ml, were injected individually on flows cell 2, 3 and 4 of a Protein A chip (GE Healthcare, 29127556) at 30 μl/min to achieve a final response of approximately 110 RU. Two different recombinant human PD-L1 antigens were used i.e. hPD-L1-His-Avi (see Example 1.3 for antigen details) and biotinylated hPD-L1-Avi-His (Acrobiosystems, PD-1-H82E5). Human and cynomolgus PD-L1-His (Acrobiosystems, PD-1-C52H4) antigens, diluted in HBS-EP buffer, were injected on flow cell 1, 2, 3 or 4 as appropriate at a concentration range of 81 nM to 0.037 nM with 3-fold dilutions for 4 min at 75 μl/min and then allowed to dissociate in buffer for 10 min. Regeneration was achieved by injecting 10 mM glycine-HCL pH1.5 (GE Healthcare, Human Antibody Capture Kit, BR00356) for 30 sec at a rate of 30 μl/min. Subtracted data (flow cell 2−flow cell 1, flow cell 3−flow cell 1, or flow cell 4−flow cell 1) were analysed using BIAevaluation 3.2 Software (GE Healthcare) to identify binding using the model 1:1 binding with mass transfer, with refractive index (RI) constant 0.

[5] = biological target: T4, cPD-L1-His (Acro Biosystems, PD1-C52H4) (cynomolgus, UniProt Q9NZQ7 19-238 (human entry)); test: as above
T4 construct: bought; also called Cyno PD-L1-His; Cynomolgus PD-L1-His; not shown: His tag of the bought product
Description: as §1

hCD137-mFc-Avi = biological target: T5, hCD137-mFc-Avi (human; mouse, UniProt Q07011 24-186, biotin on the Avi sequence where the biotinylated form was used); test: SPR, mAb^2 captured by anti-human Fab, antigen in flow
T5 construct: also called human CD137-mFc-Avi; dimeric human CD137; not shown: mouse IgG2a Fc domain (mIgG2a Fc)
Description: (§2) The binding of the anti-human CD137/PD-L1 mAb² to recombinant dimeric human and cynomolgus CD137 antigens was also measured by SPR using a Biacore T200 processing unit (GE Healthcare).
(§3) Briefly, 20 μg/ml anti-human Fab antibody (GE Healthcare, Human Fab Capture kit 28958325) was coated on flow cells 1, 2, 3 and 4 of a Biacore sensor S chip CM5 (GE Healthcare, BR100530) achieving a final response of approximately 5000 RU. […] The recombinant dimeric antigens, human CD137-mFc-Avi or cynomolgus CD137-mFc-Avi (see Example 1.1 for antigen details) diluted in HBS-EP buffer, were injected on flow cell 1, 2, 3 or 4 as appropriate at a concentration range of 81 nM to 0.037 nM with 3-fold dilutions for 4 minutes at 70 μl/min and then allowed to dissociate in buffer for 10 minutes. Regeneration was achieved by injecting 10 mM glycine pH 2.1 (GE Healthcare, Human Fab Capture kit 28958325) for 60 seconds at a rate of 30 μl/min. Data analysis was performed as described in Example 9.1.

cCD137-mFc-Avi = biological target: T6, cCD137-mFc-Avi (cynomolgus; mouse); test: as above
T6 construct: also called cynomolgus CD137-mFc-Avi; Cyno CD137-mFc-Avi; not shown: mouse IgG2a Fc domain (mIgG2a Fc)
T6 chain: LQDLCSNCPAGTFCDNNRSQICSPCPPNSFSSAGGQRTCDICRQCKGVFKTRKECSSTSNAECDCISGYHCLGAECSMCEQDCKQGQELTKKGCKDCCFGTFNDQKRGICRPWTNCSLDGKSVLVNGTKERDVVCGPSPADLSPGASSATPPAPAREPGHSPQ
Description: as §2, §3

[6] = biological target: Human FcRn (Acro Biosystems, FCM-H5286) (human, UniProt P55899 24-297; P61769 21-119); test: SPR, mAb^2 immobilised, FcRn in flow, pH 6.0, steady state affinity; pH 6.0
Description: (§4) The neonatal Fc receptor (FcRn) binding is critical for antibody recycling (Martins et al., 2016). […] G1-AA/HeID1.3 was included as an isotype control IgG control lacking mutations in the CH3 domain.
(§5) Briefly, mAb² were individually coated on flow cell 2, 3 and 4 of Series S Sensor Chip CM5 (GE Healthcare, BR100530) to achieve a response of approximately 1000 RU. Flow cell 1 was activated/deactivated but left blank as a reference. Human FcRn (Acro Biosystems, FCM-H5286) or mouse FcRn (R&D systems, 9114-Fc) was dialysed and diluted in MHBS-EP⁺B pH 6.0 or pH 7.4 buffer (10 mM MES, FortéBio, 18-5026; 1×HBS-EP, GE Healthcare, BR100669; 0.1 mg/ml BSA, Sigma, A7906) and injected on flow cell 1, 2, 3 and 4 at 2000-3000 nM with 2-fold dilutions for 1 min at 80 μl/min and then allowed to dissociate in buffer for 3 min. […] Subtracted data (flow cell 2−flow cell 1, flow cell 3−flow cell 1, or flow cell 4−flow cell 1) was analysed using Biacore T200 Evaluation Software 2.0 to identify binding using the model steady state affinity.

[7] = biological target: T7, mouse FcRn (R&D systems, 9114-Fc) (mouse, UniProt Q61559 22-297; P01887 21-119, limits assumed); test: as above
T7 sequence (looked up) 1: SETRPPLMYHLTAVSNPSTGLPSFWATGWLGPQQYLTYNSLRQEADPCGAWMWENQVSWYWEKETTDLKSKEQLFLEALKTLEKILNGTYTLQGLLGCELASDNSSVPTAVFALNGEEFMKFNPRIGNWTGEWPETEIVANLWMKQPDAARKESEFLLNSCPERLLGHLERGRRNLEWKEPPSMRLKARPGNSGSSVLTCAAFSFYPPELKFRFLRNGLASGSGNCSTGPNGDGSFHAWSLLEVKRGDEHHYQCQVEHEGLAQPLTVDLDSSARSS
T7 sequence (looked up) 2: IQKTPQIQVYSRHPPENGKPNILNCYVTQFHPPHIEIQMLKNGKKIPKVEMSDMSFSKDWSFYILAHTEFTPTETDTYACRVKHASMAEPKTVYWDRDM
Description: as §4, §5

[8] = biological target: T1, human CD137, cell-surface; test: cell-based or functional assay; remark: listed apart in the source
[9] = biological target: T1, human CD137, cell-surface; test: cell-based or functional assay; remark: listed apart in the source
[10] = biological target: T1, human CD137, cell-surface; test: cell-based or functional assay; remark: listed apart in the source
[11] = biological target: T1, human CD137, cell-surface; test: cell-based or functional assay; remark: listed apart in the source
[12] = biological target: T3, biotinylated hPD-L1-Avi-His (Acro …); test: SPR, antibody captured on Protein A chip, antigen in flow
[13] = biological target: T4, cPD-L1-His (Acro Biosystems, PD1-C52H4); test: as above

T3 sequence (Q9NZQ7 19-238): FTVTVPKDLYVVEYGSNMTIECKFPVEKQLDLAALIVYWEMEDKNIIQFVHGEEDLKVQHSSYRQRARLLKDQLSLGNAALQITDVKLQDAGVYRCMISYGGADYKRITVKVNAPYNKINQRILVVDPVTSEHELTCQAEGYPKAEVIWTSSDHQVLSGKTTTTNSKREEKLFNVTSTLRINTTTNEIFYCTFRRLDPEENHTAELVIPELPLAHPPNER
T4 sequence (Q9NZQ7 other isoform, or with tags, fused parts or gaps): as the sequence (Q9NZQ7 19-238) above, with A33T, A34S, S62N, R68Q, Q82R, F173L, T185A, T192I, H215L counted along it
Chain of Human FcRn (Acro Biosystems, FCM-H5286) (P55899 24-297 limits assumed, chain 1 of 2): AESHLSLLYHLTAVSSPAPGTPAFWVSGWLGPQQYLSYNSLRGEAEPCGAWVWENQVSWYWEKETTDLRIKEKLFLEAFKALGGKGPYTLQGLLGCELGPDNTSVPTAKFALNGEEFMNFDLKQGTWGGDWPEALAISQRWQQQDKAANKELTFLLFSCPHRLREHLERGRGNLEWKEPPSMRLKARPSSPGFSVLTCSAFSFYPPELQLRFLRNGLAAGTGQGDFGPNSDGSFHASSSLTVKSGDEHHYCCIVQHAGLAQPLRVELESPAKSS
Chain of Human FcRn (Acro Biosystems, FCM-H5286) (P61769 21-119 limits assumed, chain 2 of 2): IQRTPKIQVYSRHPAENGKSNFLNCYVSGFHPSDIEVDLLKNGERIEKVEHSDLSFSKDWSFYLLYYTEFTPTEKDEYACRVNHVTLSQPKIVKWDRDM
T5 sequence (Q07011 24-186): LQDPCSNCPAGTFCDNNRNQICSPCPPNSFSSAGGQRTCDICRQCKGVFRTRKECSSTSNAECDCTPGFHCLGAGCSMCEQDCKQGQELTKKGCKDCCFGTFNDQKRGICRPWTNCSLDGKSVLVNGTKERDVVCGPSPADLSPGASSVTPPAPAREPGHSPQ
Chain of human PD-L1, cell-surface (Q9NZQ7 19-290): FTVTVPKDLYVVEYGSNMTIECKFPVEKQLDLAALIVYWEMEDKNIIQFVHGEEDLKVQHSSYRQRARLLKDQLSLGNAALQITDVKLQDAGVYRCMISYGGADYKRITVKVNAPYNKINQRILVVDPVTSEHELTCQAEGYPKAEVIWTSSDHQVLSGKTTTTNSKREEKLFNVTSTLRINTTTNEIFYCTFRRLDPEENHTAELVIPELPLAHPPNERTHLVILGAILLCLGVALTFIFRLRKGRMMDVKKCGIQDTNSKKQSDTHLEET

| Binder | EC50 (nM) (crosslinked), mIL-2 release, DO11.10.cCD137 with HEK.cyPD-L1 [3] | Emax (pg/ml) (crosslinked), mIL-2 release, DO11.10.cCD137 with HEK.cyPD-L1 [3] | Kd [4] | Kd [5] | Kd (hCD137-mFc-Avi) | Kd (cCD137-mFc-Avi) | Kd [6] | Kd [7] | further results |
| --- | --- | --- | --- | --- | --- | --- | --- | --- | --- |
| B1 | 0.08 nM | 9010 pg/mL | 0.19 nM | 0.25 nM | 2.6 nM | 0.6 nM | 998 nM | 177 nM | EC50 (nM), hIL-2 release, CD8+ T cells, donor 171115A, HEK.hPD-L1 XL [1]: 0.1 nM; EC50 (nM), hIL-2 release, CD8+ T cells, donor 171115A, MDA-MB-231 XL [1]: 0.01 nM; EC50 (nM), hIL-2 release, CD8+ T cells, donor 171115B, HEK.hPD-L1 XL [1]: 0.11 nM; EC50 (nM), hIL-2 release, CD8+ T cells, donor 171115B, MDA-MB-231 XL [1]: 0.02 nM; EC50 (nM), IFN-γ release, human MLR [2]: 0.04 nM; Emax (pg/ml), IFN-γ release, human MLR [2]: 3130 pg/mL |
| B2 | 0.08 nM | 12300 pg/mL | 1.54 nM | 1.91 nM | 1.3 nM | 2.2 nM | 1220 nM | 167 nM |  |
| B3 |  |  |  |  |  |  |  |  | EC50, hIL-2 release, primary human CD8+ T cells, crosslinked with anti-hCH2 [8]: 0.5 nM; EC50 (nM), hIL-2 release, CD8+ T cells, donor 171115A, HEK.hPD-L1 assay, crosslinked with anti-hCH2 [1]: 0.21 nM; EC50 (nM), hIL-2 release, CD8+ T cells, donor 171115A, MDA-MB-231 assay, crosslinked with anti-hCH2 [1]: 0.31 nM; EC50 (nM), hIL-2 release, CD8+ T cells, donor 171115B, HEK.hPD-L1 assay, crosslinked with anti-hCH2 [1]: 0.29 nM; EC50 (nM), hIL-2 release, CD8+ T cells, donor 171115B, MDA-MB-231 assay, crosslinked with anti-hCH2 [1]: 0.28 nM; EC50 (nM), IFN-γ release, human MLR, crosslinked with anti-human CH2 [9]: 1.9 nM; Emax (pg/ml), IFN-γ release, CEFT antigen recall assay, crosslinked with anti-human CH2 (EC50 N/A) [10]: 13000 pg/mL; EC50 (nM), IFN-γ release, CEF antigen recall assay, crosslinked with anti-human CH2 [11]: 0.33 nM |
| B4 |  |  |  |  |  |  |  |  | Kd [12]: 0.44 nM; Kd [13]: 0.75 nM |
